The data set has as its system MS2 coat protein. Put plainly: apparent KD of MS2 coat protein; designed switch direction (-1 OFF switch, 1 ON switch): -1; higher = weaker reporter binding. In short, it runs like this: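 On Illumina chips, designed RNA switches with common flanks were made by stalled E. coli RNA polymerase. Titrations with SNAP-549-labelled MS2 coat protein, doubling from 0.7 or 1.5 nM to 3 µM, were done with no input, with 200 uM small-molecule ligand, or with an oligonucleotide input. Apparent KD is the median per design over clusters, from curve fits of normalised cluster fluorescence.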

[1] abbreviates: Eterna round: R95, input ligand: FMN 200 uM.
Where [2] appears, read: Eterna round: R95, input ligand: microRNA oligo, concentration not stated.
Where [3] appears, read: Eterna round: R95, input ligand: none.
Where [4] appears, read: input ligand: microRNA oligo, concentration not stated.

As for “AGUAGAUCUACGCUUGCGUGGAUCUGCAUUGCAAGUGUAACAUGAGGAUCACCCAUGUCCUCAUUUGCUCGUCUUAU [JL turnoff v2 99.02] (puzzle: Sensor v3, turn-off variant 2)”, the “apparent KD of MS2 coat protein” value under setting [1] was found to be 0.0544 µM, the “apparent KD of MS2 coat protein” value under setting [2] was determined as 0.277 µM and the “apparent KD of MS2 coat protein” value under setting [3] was found to be 0.0542 µM.

Turning to “AGUAGAUCUACGCUUGCGUGGAUCUGCUAGGCAGGUGUUACAUGAGGAUCACCCAUGUCCUCAUUUGUUCGUCUUAU [JL turnoff v2 99.17] (puzzle: Sensor v3, turn-off variant 2)”, the “apparent KD of MS2 coat protein” value is, setting by setting: under setting [1], 0.378 µM; under setting [2], 0.153 µM; under setting [3], 0.604 µM.

For “AGUAGGAGAGGAUAUACGAAGUCAAAAGACUUCGAUCCUCAACAUGAGGAUCACCCAUGUAGAAGGCUCCUACA [Omei Ex2 BD A1] (Eterna round: R97, puzzle: Exclusion 2)”, the “apparent KD of MS2 coat protein” value is, setting by setting: (input ligand: FMN 200 uM) 0.166 µM; (input ligand: none) 0.154 µM.

As to “AGUAGGUCUACCUUGGUGGAUCUGCAUUUAUGCAGGUGAACAUGAGGAUCACCCAUGUCCUCAUUUGCUCGUCUUAU [JL turnoff v2 99.28] (puzzle: Sensor v3, turn-off variant 2)”, the “apparent KD of MS2 coat protein” value runs as follows: under setting [1], 0.0553 µM; under setting [2], 0.539 µM; under setting [3], 0.0615 µM.

“AGUAGUAGUAUCCGAUCGUACAUGAGGAUCACCCAUGUAGCUAGACGUGCACGCGAUGCUCGUCAGACUACCAGAUG [salish99_TOv1_r3_036] (puzzle: Sensor v3, turn-off variant 1)”: the “apparent KD of MS2 coat protein” value by setting is: under setting [1], 0.202 µM; under setting [2], 0.168 µM; under setting [3], 0.225 µM.

On to “AGUAGUAGUAUCCGGUCCUACAUGAGGAUCACCCAUGUAGCUAGACGUGCACGCGAUGCUCGUCAGACUACCAGAUG [salish99_TOv1_r3_045] (puzzle: Sensor v3, turn-off variant 1)”, for which the “apparent KD of MS2 coat protein” value amounted to 0.0486 µM under setting [1], 0.0451 µM under setting [2] and 0.0595 µM under setting [3].

As for “AGUAGUUGUUUCCGUUCUUACAUGAGGAUCACCCAUGUUUCUUGUCGUGCUCGCGUUGCUCGUCAGACUACCAGAUG [salish99_TOv1_r3_060] (puzzle: Sensor v3, turn-off variant 1)”, the “apparent KD of MS2 coat protein” value reads like this: under setting [1], 0.0511 µM; under setting [2], 0.0578 µM; under setting [3], 0.0758 µM.

Regarding “AGUAUAGUCCAUGGCCGCAAGCUUUUUACUUGUCUUACCACAUGAGGAUCACCCAUGUGACAUGGGCACCUUAUGAU [Sensor v3, turn-off variant 2 (MOD of Oranla v.4)] (puzzle: Sensor v3, turn-off variant 2)”, the “apparent KD of MS2 coat protein” value reads like this: under setting [1], 0.0204 µM; under setting [2], 0.0343 µM; under setting [3], 0.0196 µM.

“AGUAUUCGAGGAUAUACGUGCCAAUGAUCCAUGAGACUCCUACAUGAGGAUCACCCAUGUAGAAGGCGAAAACC [Eternabot (L1) Solution 99] (Eterna round: R97, puzzle: Exclusion 2)”: the “apparent KD of MS2 coat protein” value reads like this: (input ligand: FMN 200 uM) 0.0191 µM; (input ligand: none) 0.0159 µM.

“AGUCAGGCGGUAGGAUAUCCAAACCGAGUGACCCUUUCAUAACAUGAGGAUCACCCAUGUCGGUGGGAGAAGGGCCGUACGGCG [JL ViennaUCT Atra mod 2] (Eterna round: R96, puzzle: Exclusion NG 2)”: the “apparent KD of MS2 coat protein” value is, setting by setting: (input ligand: FMN 200 uM) 0.305 µM; under setting [4], 0.145 µM; (input ligand: none) 0.343 µM.

With “AGUCCACAUGAGGAUCACCCAUGUCAGGAUAUACGCAAUACAAAAGAACCCAUCAAAAGUAGAAGGGACAGGGA [Getequ] (puzzle: Exclusion 1)”, the “apparent KD of MS2 coat protein” value by setting is: under setting [1], 0.0135 µM; under setting [2], 0.01 µM; under setting [3], 0.00906 µM.

As to “AGUCCUAGUCAAGGAUAUACACCGAAGAAAUACGUAGAAGGUGACAUGAGGAUCACCCAUGUAGGGACUCUGGAAACAGAGGAA [Arordi] (Eterna round: R96, puzzle: Exclusion NG 1)”, the “apparent KD of MS2 coat protein” value came out at 0.161 µM (input ligand: FMN 200 uM), 0.0934 µM under setting [4] and 0.218 µM (input ligand: none).

For “AGUCCUGAUGUUAGGAUAUGCAACUAGCCAUUGUAGCAGAAGGAACAUGAGGAUCACCCAUGUACAAAGACCCA [Xeonbera] (puzzle: Brourd's mod of Exclusion 4)”, the “apparent KD of MS2 coat protein” value under setting [2] amounted to 0.0266 µM.

As to “AGUUCCUUUGUGAGGAUAUCAAUGAUAUAACUGUAUGAGAAGGCACAUGAGGAUCACCCAUGUUUGUUGCUGCA [Eternabot (L1) Solution 78] (Eterna round: R97, puzzle: Brourd's mod of Exclusion 4)”, the “apparent KD of MS2 coat protein” value reads like this: (input ligand: FMN 200 uM) 0.106 µM; (input ligand: none) 0.0201 µM.

Turning to “AGUUGGCGAGGAUAUACAUGAGGAUCACCCAUGUGAAAUAUAAGAGUGAGGAAGAAAAGUAGAAGGCGCUGACA [Mat - Exclusion 3 - Mod of Salish D43] (puzzle: Exclusion 3)”, under setting [2], the “apparent KD of MS2 coat protein” value is 0.0804 µM.

In the case of “AGUUGUUGCGUAGGAUAUGAGGAUCACCCAUAGUAGGAUAACGAAAGUGAAGGACUGAGGAUUACCCAGAAGGACGUGAUGACA [pwkr exNG2 2xF5 2xFMN.6] (Eterna round: R96, puzzle: Exclusion NG 2)”, the “apparent KD of MS2 coat protein” value amounted to 0.602 µM (input ligand: FMN 200 uM), 0.234 µM under setting [4] and 0.193 µM (input ligand: none).

“AUAAAACAUGAGGAUCACCCAUGUCAGGAUAUACGACUCCAACCUAACAGCUUGGACCGUAGAAGGGACAAGGG [Exclusion 1 (MOD2.2 Esqu)] (Eterna round: R97, puzzle: Exclusion 1)”: the “apparent KD of MS2 coat protein” value was determined as 0.0916 µM (input ligand: FMN 200 uM) and 0.109 µM (input ligand: none).

For “AUAAAACAUGUAGGAUAUGCGUAGCGAAGCUAUGCAGAAGGACAUGAGGAUCACCCAUGUCUUUCCGUCUGCGAACAGACGGAA [Mat - Exclusion NG 1 - Mod of JL - D44] (Eterna round: R96, puzzle: Exclusion NG 1)”, the “apparent KD of MS2 coat protein” value by setting is: (input ligand: FMN 200 uM) 0.0357 µM; under setting [4], 0.0138 µM; (input ligand: none) 0.021 µM.

In the case of “AUAAAAGUAGGAUAUUGACUGAUCGACAUGAGGAUCACCCAUGUGGUGCUGUGCGGUAUUCAAGAAGGGCUAAAAU [Ceisusma] (puzzle: Exclusion 5)”, the “apparent KD of MS2 coat protein” value under setting [2] came out at 0.0204 µM.

“AUAAAGCGAGGAUAUACAUGAGGAUCACCCAUGUGGCAGCCAGGUAGGAGUGACGUCGGUAGAAGGCGCACCCU [Quleraer] (puzzle: Exclusion 3)”: the “apparent KD of MS2 coat protein” value under setting [2] worked out at 0.0242 µM.

Take “AUAAAGUCAGGAUAUCGAAGUGAGUGGAGAGGAGGGAGGUACGAGAAGGGACAUGAGGAUCACCCAUGUAGGAA [JR_Exclusion4)Sub006] (puzzle: Exclusion 4)”: the “apparent KD of MS2 coat protein” value is, setting by setting: under setting [1], 0.0255 µM; under setting [2], 0.0242 µM; under setting [3], 0.0219 µM.

Regarding “AUAACGUAGCGAGGAUAUACGCGAGAUCGUUGCGUAGAAGGUGUAUCGUUGGACUUGAGGAUCACCCAAGUGAUGAGUCCUUCC [Mutated MS2 EX1.20] (Eterna round: R96, puzzle: Exclusion NG 1)”, the “apparent KD of MS2 coat protein” value runs as follows: (input ligand: FMN 200 uM) 0.0438 µM; under setting [4], 0.0347 µM; (input ligand: none) 0.0407 µM.

For “AUAAUGUGAGGAUAUCACGCCCAAAUAAAUGGGCGAAAUAAUGAGAAGGCACAUGAGGAUCACCCAUGUCCGAA [EX4 A.25] (Eterna round: R97, puzzle: Exclusion 4)”, the “apparent KD of MS2 coat protein” value reads like this: (input ligand: FMN 200 uM) 0.18 µM; (input ligand: none) 0.0335 µM.

On to “AUAAUGUGAGGAUAUCACGGCCCGGUAAAUCCGGUAAACGAUGAGAAGGCACAUGAGGAUCACCCAUGUUCCUG [EX4 A.2] (Eterna round: R97, puzzle: Exclusion 4)”, for which the “apparent KD of MS2 coat protein” value was determined as 0.0457 µM (input ligand: FMN 200 uM) and 0.0162 µM (input ligand: none).

Turning to “AUACUCGUUGUGAGGAUAUCGUUUUCUUUACGGAUCGAGAAGGCACAUGAGGAUCACCCAUGUUUGACGUGAAU [JR_BMOE4_Sub093] (puzzle: Brourd's mod of Exclusion 4)”, the “apparent KD of MS2 coat protein” value under setting [2] was determined as 0.0308 µM.

For “AUAGAGUCAGGAUAUACAGGUGGAGGAAAGCAGCAUAAGGAGUAGAAGGGACAUGAGGAUCACCCAUGUAAGUG [JR_Exclu4_Sub058] (puzzle: Exclusion 4)”, the “apparent KD of MS2 coat protein” value came to 0.0474 µM under setting [1], 0.0623 µM under setting [2] and 0.0602 µM under setting [3].

Turning to “AUAGGGUCAGGAUAUACGAGCAGGAGGAUGGAGCGGAGGCGGUAGAAGGGACAUGAGGAUCACCCAUGUAAGAA [JR_Exclu4_Sub052] (puzzle: Exclusion 4)”, the “apparent KD of MS2 coat protein” value under setting [1] was found to be 0.0214 µM, the “apparent KD of MS2 coat protein” value under setting [2] stood at 0.0163 µM and the “apparent KD of MS2 coat protein” value under setting [3] amounted to 0.0192 µM.

With “AUAUAGAUGGUCAGGAUAUGCUAGUGAUAACAGUAGCAGAAGGGACAUGAGGAUCACCCAUGUGGAUAGCGCAC [Brourd's EX4 #6] (Eterna round: R97, puzzle: Brourd's mod of Exclusion 4)”, the “apparent KD of MS2 coat protein” value (input ligand: FMN 200 uM) is 0.123 µM and the “apparent KD of MS2 coat protein” value (input ligand: none) was determined as 0.0371 µM.

On to “AUAUAGUCAGGAUAUACAUGAGGAUCACCCAUGUGGUAGUAGAUACAGUAGAGAUAGAGUAGAAGGGACGAUGA [EX3 #24] (Eterna round: R97, puzzle: Exclusion 3)”, for which the “apparent KD of MS2 coat protein” value is 0.113 µM (input ligand: FMN 200 uM) and 0.031 µM (input ligand: none).

As for “AUAUAGUCAGGAUAUCGAAGUGAGUGUUGGUUUGUAAGGUACGAGAAGGGACAUGAGGAUCACCCAUGUAGGAA [JR_Exclusion4)Sub003] (puzzle: Exclusion 4)”, under setting [2], the “apparent KD of MS2 coat protein” value stood at 0.0427 µM.

Consider “AUAUUACAUGAGGAUCACCCAUGUGAGGAUAUGGAGAGAGACCGCCCGGUCGCGUACACCAGAAGGCGCAGGCG [1st #60] (Eterna round: R97, puzzle: Exclusion 1)”, for which the “apparent KD of MS2 coat protein” value runs as follows: (input ligand: FMN 200 uM) 0.0198 µM; (input ligand: none) 0.0212 µM.

Source of the values: the supplement of paper PMC9170038.
